Values belong to the binder of their own block, whether it stands above or below them.
Experiments:
[1] = molecular target: T1, human DLL4 overexpressed on cells (human, UniProt Q9NR61 27-685); test: competitive FMAT, hNotch1-Fc on CHO-hDLL4
T1 construct: full length human DLL4 on CHO or HEK293 cells; also called CHO-hDLL4; CHO-hDII4

[2] = molecular target: T1, human DLL4 overexpressed on cells; test: FACS titration on HEK293-hDLL4 cells, MCF
Procedure: In order to determine the cynomologus cross-reactivity of the VHHs, a FACS binding experiment is performed. Cynomolgus DII4 expressing HEK293 cells (transient or stable transfection) are used for a titration binding experiment of the VHHs. After a 30 minutes incubation on ice, all samples are washed and detection is performed by applying anti-c-myc˜Alexa647 (Santa Cruz Biotechnology, Santa Cruz, Calif., USA). Human and mouse DII4 overexpressing HEK293 cells are taken as reference. The mean MCF value is determined on the FACS Array and used for calculation of the EC₅₀ value (see FIG. 9 A-E).

recombinant human DLL4 [3] = molecular target: T2, recombinant human DLL4 (human, UniProt Q9NR61 25-522); test: cell-based or functional assay
recombinant human DLL4 [4] = molecular target: T2, recombinant human DLL4; test: competition ELISA, biot-hDLL4 to coated hNotch1-Fc
Source text: Residual binding of biotinylated human DII4 is detected using horseradish peroxidase (HRP) conjugated extravidin (Sigma, St. Louis, Mo., USA) (FIG. 3 A-C). Human DII4 is biotinylated as described above.

mDLL4.10 = mDLL4.10 (mouse); test: Biacore, VHH on chip, 200 nM DLL4 sample injected
hDLL4.5 = hDLL4.5 (human); test: Biacore, VHH on chip, 200 nM DLL4 sample injected
recombinant mouse DLL4 = molecular target: T3, recombinant mouse DLL4 (mouse, UniProt Q9JI71 27-532); test: Biacore, VHH on chip, 200 nM DLL4 sample injected
T3 construct: extracellular domain; also called rmDLL4; mDLL4

recombinant human DLL4 [5] = molecular target: T2, recombinant human DLL4; test: Biacore, VHH on chip, 200 nM DLL4 sample injected
hDLL4.6 = hDLL4.6 (human); test: Biacore, VHH on chip, 200 nM DLL4 sample injected
hDLL4.3 = hDLL4.3 (human); test: Biacore, VHH on chip, 200 nM DLL4 sample injected
mDLL4.12 = mDLL4.12 (mouse); test: Biacore, VHH on chip, 200 nM DLL4 sample injected
mDLL4.11 = mDLL4.11 (mouse); test: Biacore, VHH on chip, 200 nM DLL4 sample injected
[6] = molecular target: T4, mouse DLL4 overexpressed on cells (mouse, UniProt Q9JI71 27-686); test: competitive FMAT, hNotch1-Fc on CHO-mDLL4
T4 construct: whole, on cells; also called CHO-mDLL4; CHO-mDII4

human DLL1 (Alexis) = molecular target: T5, human DLL1 (Alexis) (human, UniProt O00548 18-545, limits assumed); test: binding ELISA on coated human DLL1 (Example 5.8, Example 7), OD 450 nm
T5 construct: also called hDLL1
T5 sequence (looked up): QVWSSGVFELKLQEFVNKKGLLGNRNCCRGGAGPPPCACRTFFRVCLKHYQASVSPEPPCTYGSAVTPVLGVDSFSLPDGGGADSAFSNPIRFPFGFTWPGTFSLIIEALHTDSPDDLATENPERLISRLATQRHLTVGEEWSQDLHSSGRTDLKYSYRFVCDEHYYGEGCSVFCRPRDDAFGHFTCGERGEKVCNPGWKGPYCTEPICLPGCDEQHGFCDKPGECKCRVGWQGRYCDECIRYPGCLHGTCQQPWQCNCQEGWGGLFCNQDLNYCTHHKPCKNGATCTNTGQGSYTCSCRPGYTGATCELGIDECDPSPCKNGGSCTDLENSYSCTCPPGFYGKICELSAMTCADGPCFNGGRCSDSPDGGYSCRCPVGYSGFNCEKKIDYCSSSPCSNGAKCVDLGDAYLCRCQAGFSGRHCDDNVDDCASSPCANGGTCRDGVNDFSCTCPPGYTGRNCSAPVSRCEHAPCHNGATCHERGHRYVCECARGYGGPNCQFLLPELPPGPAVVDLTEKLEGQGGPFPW

[7] = molecular target: T6, recombinant mouse DLL4 (C-terminally His-tagged extracellular domain, R&D Systems) (mouse, UniProt Q9JI71 27-532); test: binding ELISA on coated recombinant mouse DLL4 (Example 5.8, Example 7), OD 450 nm
T6 construct: extracellular domain; also called rmDLL4; mDLL4

[8] = molecular target: T7, recombinant human DLL4 (C-terminally His-tagged extracellular domain, R&D Systems) (human, UniProt Q9NR61 25-522, biotinylated in the competition ELISA); test: binding ELISA on coated recombinant human DLL4 (Example 5.8, Example 7), OD 450 nm
T7 construct: also called rhDLL4; hDLL4

[9] = molecular target: T7, recombinant human DLL4 (C-terminally …); test: binding ELISA on recombinant human DLL4, OD 450 nm
human Jagged-1 (Alexis) = molecular target: T8, human Jagged-1 (Alexis) (human, UniProt P78504 34-1067, limits assumed); test: binding ELISA on coated human Jagged-1 (Example 5.8, Example 7), OD 405 nm
T8 construct: also called hJag-1; hJAG1

T4 sequence (Q9JI71 27-686): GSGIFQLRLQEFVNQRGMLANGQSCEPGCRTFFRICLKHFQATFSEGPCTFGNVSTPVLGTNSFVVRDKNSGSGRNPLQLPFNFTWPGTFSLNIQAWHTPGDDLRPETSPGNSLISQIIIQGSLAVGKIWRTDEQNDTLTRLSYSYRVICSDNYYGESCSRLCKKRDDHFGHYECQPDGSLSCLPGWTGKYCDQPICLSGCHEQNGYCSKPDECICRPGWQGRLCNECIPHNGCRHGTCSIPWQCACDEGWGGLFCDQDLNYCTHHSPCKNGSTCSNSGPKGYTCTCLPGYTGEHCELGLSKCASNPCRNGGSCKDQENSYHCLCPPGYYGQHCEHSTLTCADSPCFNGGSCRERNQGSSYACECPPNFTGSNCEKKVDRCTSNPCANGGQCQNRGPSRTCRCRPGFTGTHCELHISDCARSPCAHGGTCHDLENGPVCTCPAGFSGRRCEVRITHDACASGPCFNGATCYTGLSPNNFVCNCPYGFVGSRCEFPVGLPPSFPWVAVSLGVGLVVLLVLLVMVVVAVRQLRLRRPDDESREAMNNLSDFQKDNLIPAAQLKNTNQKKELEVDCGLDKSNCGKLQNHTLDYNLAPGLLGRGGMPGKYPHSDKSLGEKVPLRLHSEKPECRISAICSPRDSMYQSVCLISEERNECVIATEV
T6 sequence (Q9JI71 27-532): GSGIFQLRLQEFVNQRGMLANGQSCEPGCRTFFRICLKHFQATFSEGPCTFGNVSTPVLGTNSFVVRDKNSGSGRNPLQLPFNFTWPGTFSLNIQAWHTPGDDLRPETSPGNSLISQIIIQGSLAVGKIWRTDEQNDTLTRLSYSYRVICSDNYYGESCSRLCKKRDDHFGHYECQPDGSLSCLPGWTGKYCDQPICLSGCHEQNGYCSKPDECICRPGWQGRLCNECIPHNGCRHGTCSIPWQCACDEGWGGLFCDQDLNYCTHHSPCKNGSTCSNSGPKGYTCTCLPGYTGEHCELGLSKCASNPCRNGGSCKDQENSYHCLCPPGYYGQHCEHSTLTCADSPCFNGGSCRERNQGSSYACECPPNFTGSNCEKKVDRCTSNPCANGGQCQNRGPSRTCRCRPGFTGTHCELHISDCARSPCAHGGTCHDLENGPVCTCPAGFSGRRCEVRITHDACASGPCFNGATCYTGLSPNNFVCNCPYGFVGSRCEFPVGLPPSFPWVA
T3 sequence (Q9JI71 27-532): as above

EC50 (read off the curve) [7]: ~1 nM
EC50 (read off the curve) [8]: ~0.6 nM
B2: DLLBII133A09 (VHH, not shown: small tags and cut ends)
VHH: EVQLVESGGGLVQPGGSLRLSCAASGFTFGSYDMSWVRRSPGKGPEWVSAINSGGGSTYYADYVKGRFTISRDNAKNTLYLQMNSLKPEDTAVYYCAADRYIWARQGEYWGAYAYDYWGQGTQVTVSS
binding result (human DLL1 (Alexis)): no binding (tested: log[M] -6.1 (about 8e-7 M))

EC50 (read off the curve) [7]: ~1 nM
EC50 (read off the curve) [8]: ~0.6 nM
B3: DLLBII015 (VHH, not shown: small tags and cut ends)
VHH: EVQLVESGGGLVQPGGSLRLSCAASGFTIGSYDMSWVRRSPGKGPEWVSAINSGGGSTYYADYVKGRFTISRDNAKNTLYLQMNSLKPEDTAVYYCAADRYIWARQGEYWGAYAYDYWGQGTQVTVSS
binding result (human DLL1 (Alexis)): no binding (tested: log[M] -6.1 (about 8e-7 M))

EC50 (read off the curve) [7]: ~1 nM
EC50 (read off the curve) [8]: ~0.6 nM
B4: DLLBII136C07 (VHH, not shown: small tags and cut ends)
VHH: EVQLVESGGGLVQPGGSLRLSCAASGFTFGSYDMSWVRRSPGKGPEWVSSINSGGGSTYYADYVKGRFTISRDNAKNTLYLQMNSLKPEDTAVYYCAADRYIWARQGEYWGAYEYDYWGQGTQVTVSS
binding result (human DLL1 (Alexis)): no binding (tested: log[M] -6.1 (about 8e-7 M))

EC50 (read off the curve) [7]: ~0.4 nM
EC50 (read off the curve) [8]: ~0.4 nM
B5: DLLBII133G05 (VHH, not shown: small tags and cut ends)
VHH: EVQLVESGGGLVQPGGSLRLSCAASGFTFGSYDMSWVRRSPGKGPEWVSAINSGGGSTYYTDYVKGRFTISRDNAKNTLYLQMNSLKPEDTAVYYCAADRYIWARQGEYWGAYAYDYWGQGTQVTVSS
binding result (human DLL1 (Alexis)): no binding (tested: log[M] -6.1 (about 8e-7 M))

More lines, now with the values behind:

B1: DLLBII115A05 (VHH)
VHH: EVQLVESGGGLVQPGGSLRLSCAASGFTFGSYDMSWVRRSPGKGPEWVSSINSGGGSTYYADFVKGRFTISRDNAKNTLYLQMNSLKPEDTAVYYCAADRYIRARQGDYWGAYEYDYWGQGTQVTVSS
notes: also called 115A5; DLLBII115A5
IC50 [1]: 22 nM
EC50 (read off the curve) [2]: ~20 nM
IC50 (nM) (experiment 1), DLL4 proliferation assay (HUVEC) (recombinant human DLL4 [3]): 10000 nM
IC50 (recombinant human DLL4 [4]): 9.1 nM
Binding (RU) (mDLL4.10): 121 RU
koff (mDLL4.10): 0.0038 s⁻¹
Binding (RU) (hDLL4.5): 162 RU
koff (hDLL4.5): 0.0042 s⁻¹
Binding (RU) (recombinant mouse DLL4): 344 RU
koff (recombinant mouse DLL4): 0.0065 s⁻¹
Binding (RU) (recombinant human DLL4 [5]): 324 RU
koff (recombinant human DLL4 [5]): 0.0035 s⁻¹
Binding (RU) (hDLL4.6): 152 RU
koff (hDLL4.6): 0.0041 s⁻¹
Binding (RU) (hDLL4.3): 137 RU
koff (hDLL4.3): 0.0035 s⁻¹
Binding (RU) (mDLL4.12): 152 RU
koff (mDLL4.12): 0.0031 s⁻¹
Binding (RU) (mDLL4.11): 121 RU
koff (mDLL4.11): 0.0066 s⁻¹
IC50 [6]: 43 nM

B6: DLLBII101G08 (VHH)
VHH: EVQLVESGGGLVQAGGSLRLSCAASGRTFSSYAMAWFRQAPGKEREFVAAIRWSGGTAYYADSVQGRFTISRDNAKNTVYLQMNSLKPEDTAVYYCANRAADTRLGPYEYDYWGQGTQVTVSS
notes: also called 101G8; DLLBII101G8
IC50 [1]: 24.6 nM
EC50 (read off the curve) [2]: ~30 nM
IC50 (nM) (experiment 1), DLL4 proliferation assay (HUVEC) (recombinant human DLL4 [3]): 401 nM
IC50 (nM) (experiment 2), DLL4 proliferation assay (HUVEC) (recombinant human DLL4 [3]): 112 nM
IC50 (recombinant human DLL4 [4]): 9.5 nM
Binding (RU) (mDLL4.10): 189 RU
koff (mDLL4.10): 0.00514 s⁻¹
Binding (RU) (hDLL4.5): 266 RU
koff (hDLL4.5): 0.00219 s⁻¹
Binding (RU) (recombinant mouse DLL4): 502 RU
koff (recombinant mouse DLL4): 0.006 s⁻¹
Binding (RU) (recombinant human DLL4 [5]): 373 RU
koff (recombinant human DLL4 [5]): 0.002 s⁻¹
Binding (RU) (hDLL4.6): 229 RU
koff (hDLL4.6): 0.0022 s⁻¹
Binding (RU) (hDLL4.3): 198 RU
koff (hDLL4.3): 0.00465 s⁻¹
Binding (RU) (mDLL4.12): 244 RU
koff (mDLL4.12): 0.00452 s⁻¹
Binding (RU) (mDLL4.11): 210 RU
koff (mDLL4.11): 0.00616 s⁻¹
IC50 [6]: 92.1 nM

B7: DLLBII101G08 (VHH, not shown: small tags and cut ends)
VHH: EVQLVESGGGLVQAGGSLRLSCAASGRTFSSYAMAWFRQAPGKEREFVAAIRWSGGTAYYADSVQGRFTISRDNAKNTVYLQMNSLKPEDTAVYYCANRAADTRLGPYEYDYWGQGTQVTVSS
notes: parent VHH; also called 101G08 (wt); 101G8
EC50 (read off the curve) [9]: ~4 nM
binding result (human Jagged-1 (Alexis)): no binding (tested: log[M] -6.1 (about 8e-7 M))

B8: DLLBII129E11 (VHH, not shown: small tags and cut ends)
VHH: EVQLVESGGGLVQAGGSLRLSCAASGRTFSSYAMAWYRQAPGKEREYVAAIRWSGGTAYYADSVQGRFTISRDNAKNTVYLQMNSLKPEDTAVYYCANRAPDTRLRPYLYDYWGQGTQVTVSS
EC50 (read off the curve) [9]: ~0.7 nM
binding result (human Jagged-1 (Alexis)): no binding (tested: log[M] -6.1 (about 8e-7 M))

B9: DLLBII129B05 (VHH, not shown: small tags and cut ends)
VHH: EVQLVESGGGLVQAGGSLRLSCAASGRTFSSYAMAWYRQAPGKEREYVAAIRWSGGTAYYADSVQGRFTISRDNAKNTVYLQMNSLKPEDTAVYYCANRAPDTRLAPYEYDHWGQGTQVTVSS
EC50 (read off the curve) [9]: ~0.7 nM
binding result (human Jagged-1 (Alexis)): no binding (tested: log[M] -6.1 (about 8e-7 M))

B10: DLLBII129D08 (VHH, not shown: small tags and cut ends)
VHH: EVQLVESGGGLVQAGGSLRLSCAASGRTFSSYAMAWYRQAPGKEREYVAAIRWSGGTAYYADSVQGRFTISRDNAKNTVYLQMNSLKPEDTAVYYCANRAPDTRLEPYLYDYWGQGTQVTVSS
EC50 (read off the curve) [9]: ~0.7 nM
binding result (human Jagged-1 (Alexis)): no binding (tested: log[M] -6.1 (about 8e-7 M))

B11: DLLBII56A09 (VHH)
VHH: EVQLVESGGGLVQPGGSLRLSCAASGFTFDDYAIGWFRQAPGKEPEGISCISSSGGITYYADSVKGRFTTSRDNAKNTVYLQMNSLKPEDTAVYYCATPGIAACRGIHYTGQGTQVTVSS
notes: also called 56A9; DLLBII56A9
IC50 [1]: 10.6 nM
EC50 (read off the curve) [2]: ~4 nM
IC50 (nM) (experiment 1), DLL4 proliferation assay (HUVEC) (recombinant human DLL4 [3]): 11 nM
IC50 (nM) (experiment 2), DLL4 proliferation assay (HUVEC) (recombinant human DLL4 [3]): 6.8 nM
IC50 (recombinant human DLL4 [4]): 4.9 nM
Binding (RU) (mDLL4.10): 141 RU
koff (mDLL4.10): 0.0011 s⁻¹
Binding (RU) (hDLL4.5): 143 RU
koff (hDLL4.5): 0.0012 s⁻¹
Binding (RU) (recombinant mouse DLL4): 389 RU
koff (recombinant mouse DLL4): 0.0019 s⁻¹
Binding (RU) (recombinant human DLL4 [5]): 281 RU
koff (recombinant human DLL4 [5]): 0.00095 s⁻¹
Binding (RU) (hDLL4.6): 136 RU
koff (hDLL4.6): 0.0011 s⁻¹
Binding (RU) (hDLL4.3): 125 RU
koff (hDLL4.3): 0.00074 s⁻¹
Binding (RU) (mDLL4.12): 161 RU
koff (mDLL4.12): 0.0013 s⁻¹
Binding (RU) (mDLL4.11): 132 RU
koff (mDLL4.11): 0.0016 s⁻¹
IC50 [6]: 15 nM

Reference: patent publication US20140120095A1 (Boehringer Ingelheim, published 2014)
